Molecular target: T1, His-LEC1 (LEAFY COTYLEDON1) (Arabidopsis, UniProt Q9SFD8 1-238)
T1 construct: LEAFY COTYLEDON1 (LEC1), NF-Y transcription factor, Arabidopsis, AT1G21970; Vector pQE30; source: E. coli Rosetta DE3, purified (Ni-nitrilotriacetic acid agarose beads)
T1 sequence (looked up): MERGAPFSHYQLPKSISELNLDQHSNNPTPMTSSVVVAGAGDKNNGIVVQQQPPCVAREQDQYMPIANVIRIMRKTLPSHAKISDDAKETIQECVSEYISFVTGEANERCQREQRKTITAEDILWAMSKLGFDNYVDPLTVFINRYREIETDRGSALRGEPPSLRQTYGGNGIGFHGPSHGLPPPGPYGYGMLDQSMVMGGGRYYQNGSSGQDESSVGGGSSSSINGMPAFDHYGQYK
Experiment: pull-down; 2 μg of His-LEC1 or His-GFP incubated with immobilized GST or GST fusion proteins; 50 mM Tris-HCl pH 8.0, 100 mM NaCl, 1 mM EDTA; 4°C, 4 h; detected with an anti-His antibody
Conditions: both partners purified

binding result: binds
B1: GST-TCL2 (TRICHOMELESS2) (natural protein, Arabidopsis, UniProt B3H4X8 1-100, looked up)
chain: MDNTNRLRHLRSRKQSKFTLGDTAEVNSVKWEFINMTEQEEDLIFRMHRLVGDRWDLIAGRVVGREAKDIERYWIMRNCDHCSHKRRRVHKFYRFSISPP
notes: TCL2, single-repeat R3 MYB protein, Arabidopsis, AT2G30424; Vector pGEX-4T-1; source: E. coli Rosetta DE3, purified (glutathione sepharose beads)

Source: article PMC4630568, “Arabidopsis LEAFY COTYLEDON1 controls cell fate determination during post-embryonic development” (Frontiers in Plant Science, 2015)
